Assay results as given in PMC3382582, “The Estrogen-Related Receptor Alpha Upregulates Secretin Expressions in Response to Hypertonicity and Angiotensin II Stimulation”.

Target: T1, ERRα (in vitro translated) (Mus musculus, UniProt O08580 1-422)
T1 sequence: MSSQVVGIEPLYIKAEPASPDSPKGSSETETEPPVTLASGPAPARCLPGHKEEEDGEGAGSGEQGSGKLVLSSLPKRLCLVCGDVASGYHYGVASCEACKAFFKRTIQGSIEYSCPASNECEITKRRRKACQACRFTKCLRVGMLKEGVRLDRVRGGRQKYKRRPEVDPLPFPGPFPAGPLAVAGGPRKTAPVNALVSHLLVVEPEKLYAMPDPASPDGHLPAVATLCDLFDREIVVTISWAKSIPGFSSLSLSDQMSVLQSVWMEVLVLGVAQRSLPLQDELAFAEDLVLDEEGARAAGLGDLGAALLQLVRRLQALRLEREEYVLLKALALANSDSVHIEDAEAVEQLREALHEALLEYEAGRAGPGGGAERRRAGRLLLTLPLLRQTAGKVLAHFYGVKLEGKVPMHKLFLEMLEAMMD
Test: EMSA; 2.5 mM MgCl2, poly(dI:dC); EMSA: 10 mM Tris pH 7.5, 50 mM NaCl, 2.5 mM MgCl2, 0.5 mM DTT, 4% glycerol, 2 µg poly(dI:dC), 1 pmol probe, 20 µl, room temperature 15 min; 5% polyacrylamide gel
Settings: protein: ivt; label: 32P 5' end label (T4 PNK); strands as printed are 17 and 16 nt; S6 lacks one G relative to the exact complement of S5 (possible misprint)

B1: GS-ERRα (SCT promoter ERE-half site oligo) (dsDNA)
DNA 1: GCCCCTGACCTTCCCGG
DNA 2: CCGGGAAGGTCAGGGC
binding result: binds
